Our source for the Mean fluorescence intensity and OD450 values is patent US20210155689A1 (SHANGHAI PHARMAEXPLORER, published 2021).

Positions count from the first letter of the chain named.

In experiment [1] the target is T1, human LAG-3 on cells (HEK293-hLAG-3 stable cell line) (human, UniProt P18627 23-525).
T1 sequence: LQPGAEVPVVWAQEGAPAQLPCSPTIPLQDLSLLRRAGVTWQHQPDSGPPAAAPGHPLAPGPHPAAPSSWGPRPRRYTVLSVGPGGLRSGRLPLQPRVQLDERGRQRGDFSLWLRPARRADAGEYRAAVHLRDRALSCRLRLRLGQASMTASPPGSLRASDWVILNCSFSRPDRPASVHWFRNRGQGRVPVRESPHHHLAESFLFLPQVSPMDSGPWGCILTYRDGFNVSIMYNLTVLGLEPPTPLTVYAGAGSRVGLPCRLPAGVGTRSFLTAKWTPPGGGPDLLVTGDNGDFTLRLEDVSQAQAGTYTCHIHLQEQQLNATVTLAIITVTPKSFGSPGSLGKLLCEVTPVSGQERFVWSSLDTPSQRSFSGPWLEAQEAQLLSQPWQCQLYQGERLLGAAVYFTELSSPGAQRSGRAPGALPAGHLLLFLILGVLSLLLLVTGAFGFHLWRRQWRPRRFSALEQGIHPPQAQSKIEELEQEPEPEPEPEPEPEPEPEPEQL
Briefly: FACS, HEK293-hLAG-3, antibody 0.013 nM. From the text: (§1) The pIRES plasmid with the monkey-derived full-length gene was transfected into the HEK293 cell line to construct a HEK293 stable cell line containing monkey LAG-3 (herein referred to as HEK293-cLAG-3 stable cell line). The HEK293-hLAG-3 stable cell line and HEK293-cLAG-3 stable cell line were expanded in a T-75 cell culture flask to a 90% confluence. The medium was aspirated, and the cells were washed with HBSS (Hanks' Balanced Salt Solution) 1-2 times, then treated with a enzyme-free cell dissociation fluid (Versene solution: Life technology) and the cells were collected. The cells were washed with HBSS buffer for 1-2 times. After counted, the cells were diluted with HBSS to 1-2×10⁶ cells per ml, added with 1% goat serum blocking solution, incubated on ice for 20-30 minutes, and then washed with HBSS for 2 times by centrifugation. The collected cells were suspended in the FACS buffer (HBSS+1% BSA) to 2×10⁶ cells/ml, added as 100 microliters per well to a 96-well FACS reaction plate, added with 100 microliters per well of the antibody sample to be tested, incubated on ice for 1-2 hours. The plate was washed twice with the FACS buffer by centrifugation, added with 100 microliters of fluorescent (Alexa 488)-labeled secondary antibodies per well, and incubated on ice for 0.5-1.0 hours. The plate was washed 2-3 times with FACS buffer by centrifugation, added with 100 μl fixative solution (4% Paraformaldehyde) per well to suspend the cells. 5-10 minutes later, it was washed 1-2 times with FACS buffer by centrifugation. The cells were suspended with 100 microliters of FACS buffer, FACS (FACSCalibur, BD) was used for detection and the results were analyzed.

The target in experiment [2] is T1, human LAG-3 on cells (HEK293-hLAG-3 …). Kind of experiment: FACS, HEK293-hLAG-3, antibody 0.320 nM.
Excerpt: as §1
Background: Flow cytometry measures light scatter and fluorescence of single cells or particles in a stream.

Experiment [3] addresses T2, monkey LAG-3 on cells (HEK293-cLAG-3 stable cell line) (monkey, UniProt P18627 24-525 (human entry)).
T2 construct: Full-length monkey (Chinese monkey) LAG-3 gene expressed on HEK293 cells
T2 chain: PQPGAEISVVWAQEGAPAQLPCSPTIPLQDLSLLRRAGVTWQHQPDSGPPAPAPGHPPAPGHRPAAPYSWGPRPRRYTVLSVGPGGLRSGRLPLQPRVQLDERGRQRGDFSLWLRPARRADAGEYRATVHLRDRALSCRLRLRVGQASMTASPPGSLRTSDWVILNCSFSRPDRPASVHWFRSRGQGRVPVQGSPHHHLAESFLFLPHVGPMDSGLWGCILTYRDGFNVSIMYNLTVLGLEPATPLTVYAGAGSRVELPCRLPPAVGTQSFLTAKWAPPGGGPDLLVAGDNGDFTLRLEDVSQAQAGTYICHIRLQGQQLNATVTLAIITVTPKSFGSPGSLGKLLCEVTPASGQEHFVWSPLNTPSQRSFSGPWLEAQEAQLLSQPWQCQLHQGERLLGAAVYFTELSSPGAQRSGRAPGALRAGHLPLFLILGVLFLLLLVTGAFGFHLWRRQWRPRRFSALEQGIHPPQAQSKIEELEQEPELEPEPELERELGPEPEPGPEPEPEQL
Briefly: FACS, HEK293-cLAG-3, antibody 40.000 nM.
Excerpt: as §1

Experiment [4] has as its target T3, monkey LAG-3 (full length, on the cell surface) (monkey, UniProt P18627 24-525 (human entry)).
T3 construct: also called HEK293-cLAG-3; monkey LAG-3 protein on the cell surface
T3 chain: T2 chain
Briefly: FACS, HEK293-cLAG-3; 1.600 nM.
Excerpt: as §1

The target of experiment [5] is T4, human LAG-3 protein with hFc tag (hLAG-3-hFc protein) (human, UniProt P18627 23-450).
T4 construct: also called immunogen 1; LAG-3 extracellular domain protein; not shown: human IgG Fc fragment (hFc) of the pCpC vector
T4 sequence: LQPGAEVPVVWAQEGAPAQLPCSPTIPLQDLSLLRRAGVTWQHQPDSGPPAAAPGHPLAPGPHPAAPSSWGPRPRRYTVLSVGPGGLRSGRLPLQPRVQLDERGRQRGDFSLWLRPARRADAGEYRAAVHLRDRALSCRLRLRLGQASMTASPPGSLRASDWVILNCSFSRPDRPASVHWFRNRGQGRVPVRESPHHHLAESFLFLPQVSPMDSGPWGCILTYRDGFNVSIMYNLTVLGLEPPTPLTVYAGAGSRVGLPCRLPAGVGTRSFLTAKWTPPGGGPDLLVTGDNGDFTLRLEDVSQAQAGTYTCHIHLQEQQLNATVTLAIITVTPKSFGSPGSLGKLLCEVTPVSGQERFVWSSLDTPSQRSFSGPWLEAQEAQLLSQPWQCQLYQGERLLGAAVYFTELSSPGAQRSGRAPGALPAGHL
Kind of experiment: ELISA, hLAG-3-hFc coated; 6.6667 nM. The protocol: The plate was sealed with plastic film and incubated overnight at 4° C. The plate was washed 2 times with the plate washing solution (PBS+0.01% Tween20) on the next day, and added with the blocking solution (PBS+0.01% Tween20+1% BSA) and blocked at room temperature for 1-2 hours. The blocking solution was poured out, and the plate was added with 50-100 μl of the antibody sample to be tested to each well, incubated at 37° C. for 1-2 hours, and washed 2-3 times with a plate washing solution (PBS+0.01% Tween20). HRP (horseradish peroxidase) labeled secondary antibody was added, and the plate was incubated at 37° C. for 1-2 hours, and washed 2-3 times with a plate washing solution (PBS+0.01% Tween20). 100 μl of TMB substrate was added to each well. After incubated at room temperature for 15-30 minutes, the plate was added with 100 μl of stop solution (1.0N HCl) to each well.
A general note: In an ELISA, binding on a coated surface is turned into a signal by an enzyme label.

B1: 556F6B8 mouse-human chimeric antibody (antibody, V domains shown)
VH: RVQLKQSGPGLVQPSQSLSITCTVSGFSLIKYGVHWVRQSPGEGLEWLGVIWRGGITDYNAAFMSRLSITKDNSKSQVFFKMNSLQADDTAIYYCAKWDGPLAMDYWGQGTSVTVSS
VL: DIVMTQSHKFLSTSVGDRVSITCKASQDVGTTVAWYQQKPGQSPKLLIYWASTRHTGVPDRFTGSGSGTDFTLTISNVQSEDLADYFCQQYSSYPYTFGGGTKLEIK
notes: also called mAb123-556F6B8; 556F8B8
Regarding B1, the Mean fluorescence intensity in experiment [1] was found to be 4.2; in experiment [2], 14.3; in experiment [3] it was 74.4.

B2: 556F6B8 (mouse antibody purified from hybridoma) (antibody, V domains shown)
VH: B1 VH
VL: B1 VL
notes: also called mAb123-556F6B8
Molecule B2 returned a Mean fluorescence intensity in experiment [4] of 24.2 MFI.

B3: 556F6B8 (LAG-3 mouse-human chimeric antibody) (antibody, V domains shown)
VH: B1 VH
VL: B1 VL
notes: also called 556F8B8
For B3, in experiment [5], the OD450 came to 3.73 OD450.

B4: 405B8H3 (mouse antibody purified from hybridoma) (antibody, V domains shown)
VH: QVQLQQSGAELVRPGASVTLSCKASGYTFTDYEMHWVKQTPVHGLEWIGATDPETGNSAYNQKFKGKAIMTADKSSSTAYMELRSLTSEDSAVYYCISTGWNDWGQGTSLTVSS
VL: DIKMTQSPSSMYASLGERVTITCKASQDINSYLSWFQQKPGKSPKTLIYRADRLLDGVPSRFSGSGSGQDYSLTISSLEYGDMGIYYCLQYDEFPYTFGGGTKLEIK
notes: also called mAb103-405B8H3; 405B81-13
Molecule B4 showed a Mean fluorescence intensity in experiment [4] of 23 MFI.

B5: 105F1E10 (mouse antibody purified from hybridoma) (antibody, V domains shown)
VH: EVQLQQSGPELVKPGASVKMSCRASGYTFTDFKMHWMKQSHGKSLEWIGYIAPNNGGTAYNQKFRGKATLTVNESSNTAYMELRSLTSEDSAVYYCVDWDDVDYWGQGTTLTVSS
VL: B4 VL with P40S, D52N, L55V, G81E, D92V, Y96L, G100A, I106L
notes: also called mAb009-105F1E10
Consider B5, for which the Mean fluorescence intensity in experiment [4] came out at 15.4 MFI.

B6: 105F1E10 (LAG-3 mouse-human chimeric antibody) (antibody, V domains shown)
VH: B5 VH
VL: B4 VL with P40S, D52N, L55V, G81E, D92V, Y96L, G100A, I106L
Molecule B6 returned an OD450 in experiment [5] of 3.53 OD450.

B7: 105F1E10 mouse-human chimeric antibody (antibody, V domains shown)
VH: B5 VH
VL: B4 VL with P40S, D52N, L55V, G81E, D92V, Y96L, G100A, I106L
notes: also called mAb009-105F1E10
As to B7, the Mean fluorescence intensity in experiment [1] turned out to be 3.6; in experiment [2] it was 10.7; in experiment [3] it was 64.6.

B8: 405B8H3 (LAG-3 mouse-human chimeric antibody) (antibody, V domains shown)
VH: B4 VH
VL: B4 VL
notes: also called mouse-human chimeric antibody 405B8H3
As for B8, the OD450 in experiment [5] is 3.54 OD450.

B9: 405B8H3 mouse-human chimeric antibody (antibody, V domains shown)
VH: B4 VH
VL: B4 VL
notes: also called mAb103-405B8H3
For B9, the results for the Mean fluorescence intensity in experiment [1], in experiment [2] and in experiment [3] were 4, 17.3 and 90.8, respectively.

B10: 409D4E10 (mouse antibody purified from hybridoma) (antibody, V domains shown)
VH: B4 VH with Y27N, G56D, S58T, M70L, A72T, S98T, T99S
VL: B4 VL with D52N, G81E, D92N
notes: also called mAb112-409D4E10
B10: the Mean fluorescence intensity in experiment [4] amounted to 36.1 MFI.

B11: 409B11E12 mouse-human chimeric antibody (antibody, V domains shown)
VH: B4 VH with P41T, G56S, N57Y, M70L, S98A
VL: B4 VL with I2L, D52N, G81E
notes: also called mAb104-409B11E12
Consider B11, for which the Mean fluorescence intensity in experiment [1] was found to be 4.1; in experiment [2], 16.8; in experiment [3], 108.

B12: 409D4E10 (LAG-3 mouse-human chimeric antibody) (antibody, V domains shown)
VH: B4 VH with Y27N, G56D, S58T, M70L, A72T, S98T, T99S
VL: B4 VL with D52N, G81E, D92N
Take B12: the OD450 in experiment [5] was determined as 3.73 OD450.

B13: 409B11E12 (LAG-3 mouse-human chimeric antibody) (antibody, V domains shown)
VH: B4 VH with P41T, G56S, N57Y, M70L, S98A
VL: B4 VL with I2L, D52N, G81E
B13 showed an OD450 in experiment [5] of 3.64 OD450.

B14: 409D4E10 mouse-human chimeric antibody (antibody, V domains shown)
VH: B4 VH with Y27N, G56D, S58T, M70L, A72T, S98T, T99S
VL: B4 VL with D52N, G81E, D92N
notes: also called mAb112-409D4E10
Take B14: the results for the Mean fluorescence intensity in experiment [1], in experiment [2] and in experiment [3] were 4, 15.7 and 93.4, respectively.

B15: 409B11E12 (mouse antibody purified from hybridoma) (antibody, V domains shown)
VH: B4 VH with P41T, G56S, N57Y, M70L, S98A
VL: B4 VL with I2L, D52N, G81E
notes: also called mAb104-409B11E12
For B15, in experiment [4], the Mean fluorescence intensity is 24.4 MFI.
